Here are results for three molecules from patent publication US20140094592A1.

Test [1] concerns the target gonadotropin releasing hormone receptor. Description: competition with I125-d-Lys6-GnRH on pituitary membranes; competitor at 28.24 nM.
For test [2] the target is unchanged. Description: competition with I125-d-Lys6-GnRH on pituitary membranes; competitor at 70.59 nM.
Test [3] has the same target. In words: competition with I125-d-Lys6-GnRH on pituitary membranes; competitor at 176.47 nM.
The target is the same in test [4]. In words: competition with I125-d-Lys6-GnRH on pituitary membranes; competitor at 441.18 nM.
Test [5] shares this target. Description: competition with I125-d-Lys6-GnRH on pituitary membranes; competitor at 1102.94 nM.
For test [6] the target is unchanged. In words: competitive radio-immuno receptor binding assay, pituitary membranes, displacement of I125-d-Lys6-GnRH.
The target is the same in test [7]. Description: competition with I125-d-Lys6-GnRH on pituitary membranes; competitor at 29.09 nM.
The target is the same in test [8]. In words: competition with I125-d-Lys6-GnRH on pituitary membranes; competitor at 72.73 nM.
Test [9] has the same target. In words: competition with I125-d-Lys6-GnRH on pituitary membranes; competitor at 181.82 nM.
The target is the same in test [10]. In words: competition with I125-d-Lys6-GnRH on pituitary membranes; competitor at 454.55 nM.
Test [11] has the same target. In words: competition with I125-d-Lys6-GnRH on pituitary membranes; competitor at 1136.36 nM.
For test [12] the target is unchanged. Description: competition with I125-d-Lys6-GnRH on pituitary membranes; competitor at 32 nM.
For test [13] the target is unchanged. In words: competition with I125-d-Lys6-GnRH on pituitary membranes; competitor at 80 nM.
Test [14] has the same target. Description: competition with I125-d-Lys6-GnRH on pituitary membranes; competitor at 200 nM.
The target is the same in test [15]. Description: competition with I125-d-Lys6-GnRH on pituitary membranes; competitor at 500 nM.
Test [16] has the same target. In words: competition with I125-d-Lys6-GnRH on pituitary membranes; competitor at 1250 nM.

A word on the IC50: it is the point on the concentration scale where inhibition reaches its midpoint. A higher IC50 goes with weaker potency in that assay. Consider “d-lys6-GnRH-GMBS-rPAP (from UniProt P10297 23-285)”, for which the read-out of the competitive receptor binding assay (unit not given) was determined as 75 in [1]; 78.2 in [2]; 49.4 in test [3]; 34 in test [4]; 9.24 in test [5]. The IC50 in test [6] was in the range of 70 to 200 nM.
As to “non-conjugated recombinant PAP (not bound to d-lys6-GnRH-GMBS) (from UniProt P10297 23-285)”, the read-out of the competitive receptor binding assay (unit not given) in test [7] came to 91.5; in [8] it was 111; in [9], 96.4; in test [10], 98.7; in test [11], 74.8.

B1: d-lys6-GnRH-GMBS-plant-derived mature PAP (protein)
chain: VNTIIYNVGSTTISKYATFLNDLRNEAKDPSLKCYGIPMLPNTNTNPKYVLVELQGSNKKTITLMLRRNNLYVMGYSDPFETNKCRYHIFNDISGTERQDVETTLCPNANSRVSKNINFDSRYPTLESKAGVKSRSQVQLGIQILDSNIGKISGVMSFTEKTEAEFLLVAIQMVSEAARFKYIENQVKTNFNRAFNPNPKVLNLQETWGKISTAIHDAKNGVLPKPLELVDASGAKWIVLRVDEIKPDVALLNYVGGSCQTT
peptide: EHWSYKLRP
modifications: Hp-Glu at position 1 (blocked N-terminus); D-Lys at position 6, carrying the GMBS linker; C-terminal ethyl-amide (Et-NH2) replacing Gly 10; bound through the GMBS linker to d-lys6-GnRH; site of attachment not stated
On to B1, for which the read-out of the competitive receptor binding assay (unit not given) in test [12] is 65.5; in test [13], 37.5; in test [14] it was 10.1; in test [15], 3.38; in test [16] it was 0. The molecule further showed an IC50 in test [6] of 70 to 200 nM.
